The target of the test is T1, RIIα isoform of PKA (regulatory subunit) (Mus musculus, UniProt P12367).
T1 construct: made in house; host or cells: E. coli BL21 (DE3)
Put plainly: Surface plasmon resonance binding of D-AKAP2 to immobilized RIIα (BIAcore 3000). More on the design: species or system murine. Conditions: 1:1 binding model, average of three replicates, read-out: Kd (dissociation constant). The protocol:
FIG. 2 depicts the binding of D-AKAP2 to the regulatory subunit (RIIα) of PKA as determined using surface plasmon resonance. A total of 450 response units of RIIα were immobilized to a cAMP sensor chip. Serial dilutions (250-2 nM) of D-AKAP2 were injected over the surface. Both the one rate (kon) and the off rate (koff) were fit globally using the concentration series. A 1:1 binding model fits the data well and is illustrated as a bold line.
Binding of RIIa to D-AKAP2 was performed using a BIAcore 3000 (BIAcore). The regulatory subunit of PKA was immobilized to a CM5 chip (BIAcore) as described (Herberg et al., J. Mol. Biol., 298:329-339, 2000). […]
To evaluate the functional properties of this protein, binding of D-AKAP2 to the RIIα isoform of PKA was examined using surface plasmon resonance (Herberg et al., J. Mol. Biol. 298:329-339, 2000). […] D-AKAP2 was injected over the surface at varying concentrations and the affinity determined by fitting the curves to a 1:1 binding model (see FIG. 2).
(In SPR one partner is held on a chip, and binding of the other changes the refractive index at the surface.)

Our source for the Kd values is patent US20050233406A1, “Methods for high resolution identification of solvent accessible amide hydrogens in polypeptides and for characterization of polypeptide structure” (priority 2002, published 2005).

T1 sequence (P12367 whole entry, canonical isoform): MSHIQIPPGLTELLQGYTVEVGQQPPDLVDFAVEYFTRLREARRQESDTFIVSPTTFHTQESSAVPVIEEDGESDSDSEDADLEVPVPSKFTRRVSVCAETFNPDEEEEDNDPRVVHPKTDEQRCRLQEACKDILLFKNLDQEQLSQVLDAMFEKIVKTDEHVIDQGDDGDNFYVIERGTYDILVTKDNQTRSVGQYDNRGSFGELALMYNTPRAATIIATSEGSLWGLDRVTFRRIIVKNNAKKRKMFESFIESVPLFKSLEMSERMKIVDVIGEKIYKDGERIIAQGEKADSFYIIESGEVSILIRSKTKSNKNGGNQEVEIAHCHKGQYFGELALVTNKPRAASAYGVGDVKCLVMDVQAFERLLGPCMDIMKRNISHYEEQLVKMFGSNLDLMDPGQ

For “AKB domain alone: PKA kinase binding (AKB) domain of D-AKAP2 (residues 336-360), tested alone without the rest of the protein (DPNCFVLAQAVVFSAMEQEHFSEFL; UniProt O88845 336-360, looked up, fragment)”, the Kd is 2 nM.

One may read the Kd as the equilibrium constant for the complex coming apart.
